In article PMC5553292:

Target: Recombinant human PDK2 (pyruvate dehydrogenase kinase 2) (human)
Test: dynamic light scattering

Work on “Recombinant human PDK2 (pyruvate dehydrogenase kinase 2) (enzyme)” yielded a stoichiometry N of 2.
